US20180117084A1

Molecular target: full-length CTLA-4 (flCTLA-4) secreted by human dendritic cells on microvesicles/exosomes (human) (UniProt P16410)
Assay: cell-based or functional assay

UniProt P16410, sequence (P16410 36-223 limits assumed): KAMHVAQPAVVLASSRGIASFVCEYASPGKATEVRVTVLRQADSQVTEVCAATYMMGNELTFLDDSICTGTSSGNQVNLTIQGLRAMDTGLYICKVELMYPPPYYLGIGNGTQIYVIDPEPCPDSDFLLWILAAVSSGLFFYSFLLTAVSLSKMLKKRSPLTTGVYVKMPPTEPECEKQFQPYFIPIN

percentage of CFSE+ recipient DC after pre-clearance of supernatant with αCTLA-4 beads (20 minutes at 4 C, 0.1% sodium azide): 45%
uptake of CFSE-labeled exosomes by unlabeled DC after incubation of supernatant with αCTLA-4 coated beads, antibody at 5 µg/ml: 26%
uptake of CFSE-labeled exosomes by unlabeled DC after incubation of supernatant with αCTLA-4 coated beads, antibody at 50 µg/ml: 35%
Substance: αHuman CTLA-4 clone BNI3 (cat #: 555851, BD Pharmingen) (antibody)
